Measurements: paper PMC2288801
One block for each substance: values may come before it.

Columns and labels:
[1] = molecular target: collagen type I (UniProt P02452)
[2] = molecular target: human plasma fibronectin (human); test: ligand affinity chromatography
[3] = molecular target: human plasma fibronectin (human)
[4] = molecular target: laminin from the Engelbreth-Holm-Swarm murine tumor (mouse) (UniProt P19137)

UniProt P02452, sequence (P02452 162-1218, chain 1 of 2): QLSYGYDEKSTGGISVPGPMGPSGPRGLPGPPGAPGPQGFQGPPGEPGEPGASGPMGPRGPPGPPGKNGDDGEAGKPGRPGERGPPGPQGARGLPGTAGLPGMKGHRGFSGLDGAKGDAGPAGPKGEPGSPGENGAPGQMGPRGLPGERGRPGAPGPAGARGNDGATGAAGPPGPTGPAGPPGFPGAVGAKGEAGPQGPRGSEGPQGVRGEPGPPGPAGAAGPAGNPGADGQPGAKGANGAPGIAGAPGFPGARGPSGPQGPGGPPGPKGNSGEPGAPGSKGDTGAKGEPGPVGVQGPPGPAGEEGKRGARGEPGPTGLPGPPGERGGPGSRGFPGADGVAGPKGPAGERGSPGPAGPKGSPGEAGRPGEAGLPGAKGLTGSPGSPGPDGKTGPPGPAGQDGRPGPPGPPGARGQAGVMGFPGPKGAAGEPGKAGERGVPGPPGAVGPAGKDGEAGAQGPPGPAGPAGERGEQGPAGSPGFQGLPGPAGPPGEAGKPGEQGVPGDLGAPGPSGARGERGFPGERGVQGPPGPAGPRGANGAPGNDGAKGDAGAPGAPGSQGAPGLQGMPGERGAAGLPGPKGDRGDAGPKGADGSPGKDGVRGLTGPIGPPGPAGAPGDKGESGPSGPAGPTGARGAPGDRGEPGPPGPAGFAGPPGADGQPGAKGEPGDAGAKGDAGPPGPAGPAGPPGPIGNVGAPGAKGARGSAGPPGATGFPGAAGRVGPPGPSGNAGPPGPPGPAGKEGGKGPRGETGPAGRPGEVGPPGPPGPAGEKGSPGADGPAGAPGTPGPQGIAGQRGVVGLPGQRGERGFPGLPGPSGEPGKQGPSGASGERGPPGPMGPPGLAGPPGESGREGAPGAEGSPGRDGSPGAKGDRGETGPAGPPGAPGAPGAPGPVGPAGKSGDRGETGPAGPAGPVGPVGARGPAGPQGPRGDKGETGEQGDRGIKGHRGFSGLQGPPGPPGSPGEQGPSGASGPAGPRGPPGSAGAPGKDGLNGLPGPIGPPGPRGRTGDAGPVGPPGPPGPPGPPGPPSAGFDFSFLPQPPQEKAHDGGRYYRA
UniProt P02452, sequence (P08123 80-1119, chain 2 of 2, further chain): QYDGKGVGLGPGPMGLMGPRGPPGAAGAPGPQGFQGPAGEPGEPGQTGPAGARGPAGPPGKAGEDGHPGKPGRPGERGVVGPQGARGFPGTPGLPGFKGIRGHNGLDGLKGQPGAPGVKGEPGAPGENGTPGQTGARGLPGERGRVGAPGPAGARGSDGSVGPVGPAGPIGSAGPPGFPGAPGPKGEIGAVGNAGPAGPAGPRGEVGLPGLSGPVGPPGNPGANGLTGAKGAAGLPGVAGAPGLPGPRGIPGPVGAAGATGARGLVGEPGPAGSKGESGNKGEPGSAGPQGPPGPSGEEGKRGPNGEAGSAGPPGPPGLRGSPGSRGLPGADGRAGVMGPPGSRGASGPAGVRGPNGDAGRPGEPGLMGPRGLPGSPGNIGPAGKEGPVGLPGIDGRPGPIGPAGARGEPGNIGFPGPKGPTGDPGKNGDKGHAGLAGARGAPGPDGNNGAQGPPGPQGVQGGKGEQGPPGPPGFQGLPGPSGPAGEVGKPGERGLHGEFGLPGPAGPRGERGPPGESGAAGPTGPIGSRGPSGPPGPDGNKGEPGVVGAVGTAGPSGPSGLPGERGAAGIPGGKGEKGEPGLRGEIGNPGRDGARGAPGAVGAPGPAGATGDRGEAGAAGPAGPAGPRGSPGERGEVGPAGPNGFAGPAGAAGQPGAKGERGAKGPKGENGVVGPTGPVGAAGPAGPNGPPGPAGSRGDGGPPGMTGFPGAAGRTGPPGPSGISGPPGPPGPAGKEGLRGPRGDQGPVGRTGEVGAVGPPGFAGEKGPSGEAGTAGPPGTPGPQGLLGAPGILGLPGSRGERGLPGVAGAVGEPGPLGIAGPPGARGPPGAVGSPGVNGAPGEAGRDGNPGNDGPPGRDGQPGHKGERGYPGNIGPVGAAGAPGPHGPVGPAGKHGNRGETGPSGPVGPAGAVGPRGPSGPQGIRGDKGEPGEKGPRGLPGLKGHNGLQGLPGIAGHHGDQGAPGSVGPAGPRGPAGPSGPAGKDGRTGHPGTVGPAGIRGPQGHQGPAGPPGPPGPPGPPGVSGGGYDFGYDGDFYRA

inhibition of LOX cell attachment to Coll type I by anti-VLA-2 mAb (5E8) [1]: 76%
Substance: integrin VLA-2 (alpha2 beta1) from LOX melanoma cells (from UniProt P17301;P05556) (receptor)

percent of VLA-3 bound to the column [2]: 100%
Substance: integrin VLA-3 (alpha3 beta1) from LOX melanoma cells (from UniProt P05556 21-798) (receptor)

Table II: inhibition of binding by Ca++ relative to Mg++ (ligand Coll-I,IV) [1]: 15% | Table II: stimulation of binding by Mn++ relative to Mg++ (ligand Coll-I,IV) [1]: 1.4 fold
Substance: integrin VLA-3 (alpha3 beta1) from NCI-H69 small cell lung carcinoma cells (from UniProt P05556 21-798) (receptor)

inhibition of LOX cell attachment to Fn by anti-VLA-5 mAb (P1D6) [3]: 85%
Substance: integrin VLA-5 (alpha5 beta1) from LOX melanoma cells (from UniProt P05556 21-798) (receptor)

inhibition of LOX cell attachment to Lm by anti-VLA-6 mAb (GoH3) [4]: 77% | inhibition of NCI-H69 cell attachment to Lm by anti-VLA-6 mAb GoH3 [4]: 53%
Substance: integrin VLA-6 (alpha6 beta1) (from UniProt P05556 21-798) (receptor)
